In general, EC50 refers to the concentration giving half of the maximal effect. Lower therefore signals a more potent agent. The Kd is the constant that tells how readily two partners part at equilibrium. The koff is a measure of how fast the partners let go of each other. One may read the kon as the second-order rate constant of association.

In experiment [1] the target is T1, human PD-1 expressed on cells (human, UniProt Q15116 25-288).
T1 construct: whole, on cells; cell line named under assay; also called CHO-S hPD-1; Raji PD-1
T1 sequence (Q15116 25-288): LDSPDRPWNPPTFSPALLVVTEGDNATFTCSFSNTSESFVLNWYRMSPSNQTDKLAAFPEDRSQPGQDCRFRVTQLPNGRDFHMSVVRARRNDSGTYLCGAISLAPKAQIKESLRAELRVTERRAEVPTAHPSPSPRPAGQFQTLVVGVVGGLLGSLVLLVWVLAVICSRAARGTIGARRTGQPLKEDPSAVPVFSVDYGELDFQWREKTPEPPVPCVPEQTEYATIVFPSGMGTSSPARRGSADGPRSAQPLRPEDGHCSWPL
Briefly: flow cytometry, CHO-S hPD-1. As for the experimental part:
CHO-S hPD-1 cells were incubated with a 5-fold serial dilution of the indicated humanized antibodies. Antibody binding was detected with goat anti-human IgG-PE. MFI were plotted over the antibody concentration to obtain EC50 values.

The target of experiment [2] is T2, cynoPD-1 His (AcroBiosystems PD1-C5223) (cynomolgus monkey, UniProt B0LAJ3 25-170).
T2 construct: also called cPD-1; cynomolgus PD-1 His-tagged
T2 sequence (B0LAJ3 entry or part of it limits assumed): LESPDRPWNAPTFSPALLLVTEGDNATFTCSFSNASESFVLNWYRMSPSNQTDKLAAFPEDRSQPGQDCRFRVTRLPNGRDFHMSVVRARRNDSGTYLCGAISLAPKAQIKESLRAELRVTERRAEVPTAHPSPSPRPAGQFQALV
Put plainly: SPR, Ab captured, PD-1 analyte. The procedure:
(§1) Anti-human Fc IgG (Jackson) was immobilized on amine reactive CM5 chips (GE Healthcare) using 1×HBS-EP+ running buffer (GE Healthcare). The test antibodies were captured at flow rate 10 μl/min with 30 s contact time. […] Regeneration was carried out with 10 mM Glycine-HCl, pH 1.5 at flow rate 10 μL/min. This protocol is to be used, unless stated otherwise, in determination of Kd wherever used to define the KD of antibodies specified herein, with adaptions where necessary with regard to the nature of the interaction partners.

In experiment [3] the target is T3, hPD-1 Avi-Tag Biotin (AcroBiosystems PD1-H82E4) (human, UniProt Q15116 25-167, biotin on Avi-Tag).
T3 construct: bought; also called human PD-1
T3 sequence (Q15116 25-167 limits assumed): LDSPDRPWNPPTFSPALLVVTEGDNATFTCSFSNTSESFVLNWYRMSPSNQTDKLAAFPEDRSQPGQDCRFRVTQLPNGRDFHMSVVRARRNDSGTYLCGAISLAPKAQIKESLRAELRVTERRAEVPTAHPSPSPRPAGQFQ
Put plainly: SPR, Ab captured, PD-1 analyte. The procedure: as §1

Experiment [4] addresses T4, recombinant hPD-1 (construct not stated) (human, UniProt Q15116 25-167, limits assumed).
T4 construct: also called huPD-1; Human PD1
Briefly: SPR, Ab captured, PD-1 analyte. The procedure: (§2) Recombinant humanized antibody variants of ZJN296 were expressed as human IgG1 in HEK293 cells. For SPR analysis (Biacore 8K, GE Healthcare) anti-human Fc IgG (Bethyl, A80-304P) was immobilized on CM5 chips (Cytiva) using 1×HBS-EP+ running buffer. […] 10 mM glycine (pH 1.5) as regeneration buffer was injected to flow cells following every dissociation phase.

Experiment [5] addresses T5, recombinant cynoPD-1 (construct not stated) (cynomolgus monkey, UniProt B0LAJ3 25-170).
T5 construct: not shown: probably His as elsewhere
Put plainly: SPR, Ab captured, PD-1 analyte. As for the experimental part:
as §2
In general terms: SPR reads the build-up and loss of mass on a sensor chip optically.

For experiment [6], the target named is T2, cynoPD-1 His (AcroBiosystems PD1-C5223). Briefly: SPR, Ab captured, PD-1 analyte. The procedure: (§3) 10 mM glycine (pH 1.5) as regeneration buffer was injected to flow cells following every dissociation phase.
This is another data set of the same source.

In a further experiment the target is T6, hPD-1 His-tagged (human, UniProt Q15116 25-167).
T6 construct: also called recombinant hPD-1 (AcroBio)
T6 sequence (Q15116 25-167 limits assumed): as above
Put plainly: SPR, Ab captured, PD-1 analyte. As for the experimental part: as §3

Positions count from the first letter of the chain named. Names may count otherwise. Where two headings read alike, the source gives them in different places.

T4 sequence (Q15116 25-167 limits assumed): as above
T5 sequence (B0LAJ3 entry or part of it limits assumed): as the sequence (B0LAJ3 entry or part of it limits assumed) above

B1: z5-XVT458 (antibody, human IgG1, kappa, V domains shown)
VH: QVQLVQSGAEVKKPGASVKVSCKASGYTFTNFYIHWVRQAPGQGLEWMGSIYPNYGDTAYNQKFKDRATMTTDKSTSTAYMELRSLRSDDTAVYYCARGYSYAMDYWGQGTTVTVSS
VL: DIQMTQSPSSVSASVGDRVTITCSASQGISGDLNWYQQKPGKAPKLLIYHTSSLHSGVPSRFSGSGSGTDFTLTISSLQPEDFATYYCQYYSKDLLTFGGGTKLEIKR
notes: hIgG1; numbering as for z1; also called GH + V067A + T073K
For B1, in experiment [1], the midpoint of the response, the EC50, lay at 4.51 nM and the “Top MFI” value is 46200 MFI. In experiment [2], this molecule showed a Kd of 57.3 nM, a koff of 0.00336 s⁻¹ and a kon of 58600 M⁻¹ s⁻¹. In experiment [3], the Kd turned out to be 15.9 nM, the koff amounted to 0.00145 s⁻¹ and the kon is 91400 M⁻¹ s⁻¹.

B2: z4-XVT458 (antibody, human IgG1, kappa, V domains shown)
VH: B1 VH with T72V, K74T
VL: B1 VL
notes: hIgG1; numbering as for z1; also called GH + V067A + T071V
For the molecule B2, in experiment [1], the EC50 worked out at 4.54 nM and the “Top MFI” value stood at 46700 MFI. In addition, in experiment [2], the Kd stood at 51 nM, the off-rate constant (koff) came out at 0.00323 s⁻¹ and the kon worked out at 63300 M⁻¹ s⁻¹. In experiment [3], this molecule displayed a Kd of 13.3 nM, an off-rate constant (koff) of 0.00131 s⁻¹ and a kon of 98800 M⁻¹ s⁻¹.

B3: z7-XVT458 (antibody, human IgG1, kappa, V domains shown)
VH: B1 VH with T72V
VL: B1 VL
notes: hIgG1; numbering as for z1; also called GH + V067A + T071V + T073K
In the case of B3, in experiment [1], the EC50 came to 3.88 nM and the “Top MFI” value was 46000 MFI. In experiment [2], this molecule showed a Kd of 54.4 nM, a koff of 0.00321 s⁻¹ and a kon of 58900 M⁻¹ s⁻¹. In addition, in experiment [3], the Kd stood at 14.3 nM, the koff was found to be 0.00136 s⁻¹ and the kon is 95700 M⁻¹ s⁻¹.

B4: z3-XVT458 (antibody, human IgG1, kappa, V domains shown)
VH: B1 VH with A68V
VL: B1 VL
notes: hIgG1; numbering as for z1; also called GH + T073K
As for B4, in experiment [1], the EC50 was determined as 5.47 nM and the “Top MFI” value stood at 46200 MFI. Besides, in experiment [2], binding was characterised by a dissociation constant (Kd) of 57.7 nM, the koff was 0.00331 s⁻¹ and the association rate constant (kon) stood at 57400 M⁻¹ s⁻¹. Also, in experiment [3], the Kd came to 16.2 nM, the koff stood at 0.00142 s⁻¹ and the kon was 87400 M⁻¹ s⁻¹.

B5: z1-XVT458 (antibody, human IgG1, kappa, V domains shown)
VH: B1 VH with K74T
VL: B1 VL
notes: hIgG1; also called GH + V067A
For B5, in experiment [1], the EC50 came to 5.85 nM and the “Top MFI” value was 45200 MFI. Also, in experiment [2], the dissociation constant (Kd) turned out to be 57.3 nM, the koff stood at 0.00359 s⁻¹ and the kon stood at 62700 M⁻¹ s⁻¹. In experiment [3], the affinity, expressed as Kd, was 15.9 nM; the koff was determined as 0.00146 s⁻¹; the kon was 92300 M⁻¹ s⁻¹.

B6: z0-XVT458 (antibody, human IgG1, kappa, V domains shown)
VH: B1 VH with A68V, K74T
VL: B1 VL
notes: hIgG1; also called GH + uVL
For the molecule B6, in experiment [1], a half-maximal response (EC50) required 5.74 nM and the “Top MFI” value is 45200 MFI. In experiment [2], this molecule displayed a Kd of 56.7 nM, a koff of 0.00358 s⁻¹ and a kon of 63200 M⁻¹ s⁻¹. In experiment [3], this molecule came in with a dissociation constant Kd of 16.1 nM, a koff of 0.00147 s⁻¹ and a kon of 91100 M⁻¹ s⁻¹.

B7: z6-XVT458 (antibody, human IgG1, kappa, V domains shown)
VH: B1 VH with A68V, T72V
VL: B1 VL
notes: hIgG1; numbering as for z1; also called GH + T071V + T073K
As to B7, in experiment [1], the EC50 amounted to 3.93 nM and the “Top MFI” value was determined as 46800 MFI. In experiment [2], the Kd was determined as 53.8 nM, the dissociation rate constant (koff) turned out to be 0.00314 s⁻¹ and the kon stood at 58400 M⁻¹ s⁻¹. Moreover, in experiment [3], binding was put at a Kd of 14.5 nM, the koff worked out at 0.00133 s⁻¹ and the kon was found to be 92000 M⁻¹ s⁻¹.

B8: ZJN296-0 (antibody, human IgG1, V domains shown)
VH: QVQLVQSGAEVKKPGASVKVSCKASGYDFTSHWMHWVRQAPGQGLEWMGAIDPSDSYTNYNQKFKGRVTMTTDTSTSTAYMELRSLRSDDTAVYYCARSPFDYWGQGTTVTVSS
VL: DIQMTQSPSSLSASVGDRVTITCKASQDVSTAVAWYQQKPGKAPKLLIYSASYRYTGVPSRFSGSGSGTDFTFTISSLQPEDIATYYCQQHYSFPFTFGQGTKLEIK
notes: human IgG1; also called humanized ZJN296-0; GH + GL
For the molecule B8, in experiment [4], the Kd was found to be 8.7 nM, the koff is 0.000495 s⁻¹ and the kon was 56900 M⁻¹ s⁻¹. In addition, in experiment [5], the Kd was determined as 104 nM, the koff is 0.00641 s⁻¹ and the kon was found to be 61500 M⁻¹ s⁻¹.

B9: ZJN296-6 (antibody, V domains shown)
VH: B8 VH with T72V, T74R
VL: B8 VL
notes: human IgG1; also called GH + T071V + T073R, GL
As to B9, in experiment [4], the Kd was 3.22 nM, the off-rate (koff) was 0.000201 s⁻¹ and the kon came to 62600 M⁻¹ s⁻¹. Further, in experiment [5], the Kd worked out at 43.9 nM, the koff stood at 0.00279 s⁻¹ and the kon came out at 63600 M⁻¹ s⁻¹.

B10: ZJN296-3 (antibody, V domains shown)
VH: B8 VH with T74R
VL: B8 VL
notes: human IgG1; also called GH + T073R, GL
As to B10, in experiment [4], the Kd was 6.57 nM, the koff amounted to 0.000369 s⁻¹ and the kon came to 56100 M⁻¹ s⁻¹. In experiment [5], the Kd came to 107 nM, the koff was found to be 0.00511 s⁻¹ and the kon is 47600 M⁻¹ s⁻¹.

B11: ZJN296-2 (antibody, V domains shown)
VH: B8 VH with T72V
VL: B8 VL
notes: human IgG1; also called GH + T071V, GL
For the molecule B11, in experiment [4], the Kd amounted to 5.72 nM, the koff worked out at 0.000324 s⁻¹ and the kon worked out at 56500 M⁻¹ s⁻¹. In experiment [5], the Kd came out at 72.7 nM, the koff was 0.00433 s⁻¹ and the on-rate (kon) is 59600 M⁻¹ s⁻¹.

B12: 21A08Ap1 (antibody, V domains shown)
VH: EVQLLESGGGLVQPGGSLRLSCAASGFTFSINAMTWVRQAPGKGLEWVSTISGSGFSTYYADSLKGRFTISRDNSKNTLYLQMNSLRAEDTAVYYCAKEVYGDYWGQGTLVTVSS
VL: RSVLTQPPSASGTPGQRVSISCSGASSNIGSQSVFWYQQLPGTAPKLLIYSNNQRPSGVPDRFSGSKSGTSASLAISGLRSEDEADYYCAAWDDSLSIWVFGGGTKLTVL
notes: IgG with lambda light chain; also called 21A08p1; 21A8Ap1
Regarding B12, in experiment [6], the Kd stood at 3 nM, the koff came out at 0.00016 s⁻¹ and the kon is 52000 M⁻¹ s⁻¹. Besides, in the experiment with hPD-1 His-tagged, binding was characterised by a dissociation constant (Kd) of 0.5 nM, the koff amounted to 2.9e-05 s⁻¹ and the kon was determined as 57000 M⁻¹ s⁻¹.

B13: 21A08Ap3 (antibody, V domains shown)
VH: B12 VH
VL: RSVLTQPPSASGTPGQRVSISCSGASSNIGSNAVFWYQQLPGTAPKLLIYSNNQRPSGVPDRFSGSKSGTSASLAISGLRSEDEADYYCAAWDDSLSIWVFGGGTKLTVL
notes: IgG
For the molecule B13, in experiment [6], binding was put at a Kd of 4.67 nM, the koff came to 0.00025 s⁻¹ and the kon was 55000 M⁻¹ s⁻¹. In the experiment with hPD-1 His-tagged, this molecule came in with a Kd of 0.58 nM, a koff of 3.5e-05 s⁻¹ and a kon of 60000 M⁻¹ s⁻¹.

B14: 21A08Ap2 (antibody, V domains shown)
VH: B12 VH
VL: B12 VL with Q32S
notes: IgG with lambda light chain
In experiment [6], B14 yielded a Kd of 3.2 nM, a koff of 0.00019 s⁻¹ and a kon of 59000 M⁻¹ s⁻¹. In the experiment with hPD-1 His-tagged, this molecule had a Kd of 0.66 nM, a koff of 4.2e-05 s⁻¹ and a kon of 64000 M⁻¹ s⁻¹.

These data come from US20260207767A1 (ANAVEON, published 2026).
